# Measured values published in patent US20220033512A1 (University of California, published 2022).
# T1: human ENPP1, full length, over-expressed on HEK cells (human, UniProt P22413 1-925)
# T1 construct: whole, on cells
# T1 sequence (looked up): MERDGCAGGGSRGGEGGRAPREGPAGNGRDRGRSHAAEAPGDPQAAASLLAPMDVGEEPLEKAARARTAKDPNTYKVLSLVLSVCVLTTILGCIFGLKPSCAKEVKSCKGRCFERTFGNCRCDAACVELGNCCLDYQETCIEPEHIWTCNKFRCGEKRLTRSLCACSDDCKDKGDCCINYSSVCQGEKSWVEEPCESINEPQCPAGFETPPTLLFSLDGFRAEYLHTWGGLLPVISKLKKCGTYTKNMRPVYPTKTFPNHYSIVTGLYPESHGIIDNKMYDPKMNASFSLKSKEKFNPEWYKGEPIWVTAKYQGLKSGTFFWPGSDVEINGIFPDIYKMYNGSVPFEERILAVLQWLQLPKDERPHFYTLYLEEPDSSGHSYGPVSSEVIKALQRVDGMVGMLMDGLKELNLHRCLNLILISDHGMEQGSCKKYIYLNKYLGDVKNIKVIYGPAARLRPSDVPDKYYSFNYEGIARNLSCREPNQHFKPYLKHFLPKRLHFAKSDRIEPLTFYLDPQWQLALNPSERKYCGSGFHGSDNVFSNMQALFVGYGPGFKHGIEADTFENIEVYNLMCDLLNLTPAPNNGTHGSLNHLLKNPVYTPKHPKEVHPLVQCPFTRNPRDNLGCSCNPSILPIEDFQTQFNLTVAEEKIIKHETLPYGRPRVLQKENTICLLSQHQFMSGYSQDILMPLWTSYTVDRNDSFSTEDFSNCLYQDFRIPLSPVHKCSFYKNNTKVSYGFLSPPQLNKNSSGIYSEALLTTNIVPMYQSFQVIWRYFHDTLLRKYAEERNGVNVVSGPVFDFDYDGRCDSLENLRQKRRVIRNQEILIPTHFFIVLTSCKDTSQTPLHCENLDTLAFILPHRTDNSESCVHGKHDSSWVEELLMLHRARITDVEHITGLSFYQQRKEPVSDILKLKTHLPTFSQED
# Experiments:
# [1] = biological target: T1, human ENPP1, full length, …; test: flow cytometry (mean fluorescence intensity) on HEK cells over-expressing full length human ENPP1
# [2] = biological target: T1, human ENPP1, full length, …; test: flow cytometry (mean fluorescence intensity) on HEK cells over-expressing full length ENPP1, varying mAb concentrations, fitted in Graph Pad Prism
binder,measurement,setting,value
"12-J-4 ENPP1 monoclonal antibody (antibody, V domains shown, The antibody is a recombinant IgG1kappa made in a CHO cell line, from a hybridoma raised against human recombinant ENPP1; Heavy chain about 48 kD, light chain about 24 kD; also called ENPP1 mAb; ENPP1mAb) VH: EVMLVESGGGLVKPGGSLKLSCVASGFTFSSYTMSWVRQTPEKRLEWVATISGGGGNTYYPDSVKGRFTISRDNAKNTLYLQMSSLRSEDTALYYCARRHYGSSPYAMDYWGQGTSVTVSS VL: DIQMTQTTSSLSASLGDRVTISCRASQDISNYLNWYQQKPDGTVKLLIYHKTRLHSGVPSRFSGSGSGTDYSLTISNLEQEDIATYFCQQGNMLPWTFGGGTKLEIK",EC50 (read off the curve),[1],~4 nM
same,Kd,[2],3.52 nM
